B1: Hairpin Ribozyme (parent)
chain: GUCCUCUUUCACGUGCGCGUGAAAGAGAGAAGUGAACCAGAGAAACACACGUUGUGGUAUAUUACCUGGUA

Variants of: B1
Assay: self-cleavage, relative activity (ratio to wild type); higher = more cleavage; co-transcriptional

Point of comparison: C18U A64U, self-cleavage 0.109. Against it:
- C18U U70C — higher, 0.984
- G17U A31U — lower, 0.104
- G17U A31C — higher, 0.224
- C18U A39G — higher, 0.375
- C18U A47C — higher, 0.474
- G19A G57C — higher, 0.138
- G19A G57A — higher, 0.152
- G19U G21A — higher, 0.875
- C18U A41C — higher, 1.09
- G19C G34C — higher, 1.31
- C18G A36G — higher, 0.68
- C18G U58G — higher, 0.89
- C18G U58A — higher, 0.632
- G17U G21C — higher, 0.661
- C18G G54C — higher, 0.471
- C18A G29A — higher, 0.149
- C18A G29C — higher, 0.118
- C18U C38A — higher, 0.111
- G19A U60A — higher, 0.658
- G19A U60C — higher, 1.05
- G19A U60G — higher, 0.448
- C18A G54A — higher, 0.591
- C18U G29U — higher, 0.172
- C18U G29C — higher, 0.116
- G19A G29U — higher, 0.21
- C18G A31C — lower, 0.0659
- G19A A26G — higher, 0.932
- G19A A26C — higher, 0.541
- C18A A71C — higher, 1.34
- C18A A71U — higher, 0.831
- G19A U62G — lower, 0.103
- G19U A39G — higher, 0.297
- C18A A28U — higher, 0.844
- C18U U20C — higher, 1.06
- C18U U20A — higher, 0.848
- G19A A43G — higher, 0.16
- G19A A43U — lower, 0.102
- C18G U53C — higher, 0.806
- C18G U53A — higher, 1.02
- C18G U53G — higher, 0.819
- G17U C38A — higher, 0.136
- C18A G68C — higher, 0.18
- G19A A47G — higher, 0.183
- C18A U52C — higher, 1.05
- C18A A39G — higher, 0.395
- C18A U67C — higher, 0.274
- G19A A44G — higher, 0.137
- G19A A44U — higher, 0.269
- G17U A28U — higher, 0.51
- G17U A28C — higher, 0.383
- G19U A24U — higher, 0.684
- G19U A24G — higher, 0.926
- G19U C37A — higher, 0.34
- G19C G32A — higher, 0.147
- G19C G42A — higher, 0.194
- G19C G42C — higher, 0.329
- G17U G56U — higher, 0.112
- G19A A28G — higher, 0.934
- G19A A28U — higher, 0.408
- G19C A31G — higher, 0.524
- G19C A31U — lower, 0.0995
- G17U G19U — higher, 0.581
- G19A U53A — higher, 0.919
- G19U A49U — higher, 0.158
- C18U U67A — the same, 0.109
- C18U U67C — higher, 0.249
- G19C A43U — higher, 0.121
- C18A U70G — higher, 0.862
- C18A C65U — higher, 0.254
- G17U A26C — higher, 0.682
- C18G G69A — higher, 0.378
- G17U G32A — higher, 0.122
- G19C G68A — higher, 0.276
- G19C G68C — higher, 0.222
- G19A U55A — higher, 0.29
- G19A U55G — higher, 0.216
- G19A U55C — higher, 0.123
- G19U G27A — higher, 0.489
- C18G C46G — lower, 0.0987
- C18G C46A — lower, 0.0797
- C18A G27A — higher, 0.534
- C18A G27C — higher, 0.165
- C18U A64G — higher, 0.71
- C18U A64C — higher, 0.216
- C18U C65A — higher, 0.88
- C18U C65G — higher, 0.27
- G19U A64G — higher, 0.539
- G19U A64C — higher, 0.162
- C18U G27U — higher, 0.303
- G19C C48G — higher, 0.165
- G19C A44G — lower, 0.0921
- G17U G29A — lower, 0.105
- G17U G29U — higher, 0.128
- G19U A31U — lower, 0.0864
- G19C G56A — lower, 0.101
- C18U U55A — higher, 0.128
- C18G A24U — higher, 0.729
- G19A U52C — higher, 0.835
- G17U G34C — higher, 1.5
- G17U G34U — higher, 1.29
- C18U U33A — higher, 0.242
- G19U A44U — higher, 0.124
- C18G U67C — higher, 0.212
- C18G U67A — higher, 0.229
- C18A C37A — higher, 0.315
- G19C G40A — higher, 0.343
- G19C G40U — lower, 0.091
- C18G G40A — higher, 0.344
- C18A G40U — higher, 0.174
- C18A G40A — higher, 0.305
- C18G A59G — higher, 0.284
- C18G A59U — higher, 0.239
- G19C A59G — higher, 0.153
- C18U G68C — higher, 0.221
- C18U G68U — higher, 0.307
- C18U G68A — higher, 0.224
- G19U A59U — higher, 0.213
- G19U A59G — higher, 0.204
- C18G G34A — higher, 1.23
- G19A G42C — higher, 0.289
- C18U A35C — higher, 0.968
- C18U A35G — higher, 0.986
- C18G U20C — higher, 0.923
- G19U A71G — higher, 1.02
- G19C A49C — lower, 0.0455
- G19C A49G — higher, 0.366
- C18A A47G — higher, 0.216
- G19A G54C — higher, 0.403
- C18G U70A — higher, 0.885
- C18G G51A — higher, 0.933
- C18G G51U — higher, 0.953
- C18A C48U — higher, 0.214
- G19C A35U — higher, 0.574
- G19C A35C — higher, 0.832
- C18U A24C — higher, 1.21
- G19A A39G — higher, 0.274
- G19A A39C — higher, 0.437
- G19C A36G — higher, 0.766
- C18U A49U — higher, 0.141
- G19C A45C — higher, 0.114
- G19C A45G — higher, 0.277
- C18A G34U — higher, 1.46
- C18G A30G — higher, 0.131
- C18G A22U — higher, 0.801
- G19U — higher, 0.891
- G19A — higher, 0.853
- G19C — higher, 0.85
- C18G U63A — higher, 0.147
- G17U U55A — higher, 0.142
- C18U A44U — higher, 0.15
- C18U A44G — higher, 0.113
- G17U C66G — higher, 0.158
- C18A G32C — lower, 0.0795
- C18A U63C — lower, 0.0808
- G19C G57A — higher, 0.174
- G17U A43G — lower, 0.0761
- G19A C38U — higher, 0.508
- C18U G25U — higher, 0.69
- G17U A22G — higher, 0.831
- C18U G51A — higher, 1.26
- C18U G51C — higher, 0.881
- C18A A31C — higher, 0.192
- C18G A47U — lower, 0.0785
- C18G A47C — higher, 0.242
- G17U A36C — higher, 0.587
- G17U A36G — higher, 1.06
